Experimental data taken from PMC5159498, “IQGAP1 Interaction with RHO Family Proteins Revisited” (The Journal of Biological Chemistry, 2016).

Legend:
Settings in all cases: both partners purified
[1] = target: T1, IQGAP1 GRD1-RGCT S1441E (aa 877-1558) (human, UniProt P46940 877-1558, S1441E); assay: fluorescence polarisation; IQGAP1 variant titrated to mGppNHp-bound RHO protein (1 μM); equilibrium Kd (eKd), quadratic fit; 30 mM Tris/HCl pH 7.5, 150 mM NaCl, 5 mM MgCl2, 3 mM DTT, 25 °C
T1 construct: human IQGAP1 aa 877-1558 with the phosphomimetic mutation S1441E, from the vector pET46 EkLIC; source: E. coli (pLysS BL21(DE3), CodonPlusRIL or BL21(Rosetta)), purified (Ni-NTA, gel filtration)
T1 sequence (looked up): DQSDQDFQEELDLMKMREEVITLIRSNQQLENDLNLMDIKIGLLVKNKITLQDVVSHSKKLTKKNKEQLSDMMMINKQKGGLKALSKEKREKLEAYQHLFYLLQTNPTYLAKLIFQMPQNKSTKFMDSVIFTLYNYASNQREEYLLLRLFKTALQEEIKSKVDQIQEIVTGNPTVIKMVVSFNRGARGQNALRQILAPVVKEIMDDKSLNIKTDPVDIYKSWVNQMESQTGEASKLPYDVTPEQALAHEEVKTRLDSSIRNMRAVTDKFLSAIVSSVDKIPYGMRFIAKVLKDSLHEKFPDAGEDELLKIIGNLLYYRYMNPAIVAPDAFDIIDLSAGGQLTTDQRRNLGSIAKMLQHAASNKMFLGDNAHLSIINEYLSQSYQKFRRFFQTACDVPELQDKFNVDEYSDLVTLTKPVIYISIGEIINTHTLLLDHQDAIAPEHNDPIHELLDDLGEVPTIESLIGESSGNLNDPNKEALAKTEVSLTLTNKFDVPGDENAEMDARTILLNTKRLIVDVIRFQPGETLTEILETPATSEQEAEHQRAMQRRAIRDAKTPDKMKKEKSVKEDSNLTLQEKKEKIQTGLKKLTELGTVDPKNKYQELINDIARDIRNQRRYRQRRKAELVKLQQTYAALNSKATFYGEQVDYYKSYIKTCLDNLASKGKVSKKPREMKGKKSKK

[2] = target: T2, IQGAP1 GRD1-CT (aa 863-1657) (human, UniProt P46940 863-1657); assay: fluorescence polarisation; IQGAP1 variant titrated to mGDP-bound (inactive) RHO protein (1 μM), same conditions as with mGppNHp; 30 mM Tris/HCl pH 7.5, 150 mM NaCl, 5 mM MgCl2, 3 mM DTT, 25 °C
T2 construct: human IQGAP1, GRD, RGCT and CT domains, aa 863-1657; The GST tag was cleaved 'if needed'; also called C-terminal half of IQGAP1; C-terminal 795 amino acids of IQGAP1
T2 sequence (looked up): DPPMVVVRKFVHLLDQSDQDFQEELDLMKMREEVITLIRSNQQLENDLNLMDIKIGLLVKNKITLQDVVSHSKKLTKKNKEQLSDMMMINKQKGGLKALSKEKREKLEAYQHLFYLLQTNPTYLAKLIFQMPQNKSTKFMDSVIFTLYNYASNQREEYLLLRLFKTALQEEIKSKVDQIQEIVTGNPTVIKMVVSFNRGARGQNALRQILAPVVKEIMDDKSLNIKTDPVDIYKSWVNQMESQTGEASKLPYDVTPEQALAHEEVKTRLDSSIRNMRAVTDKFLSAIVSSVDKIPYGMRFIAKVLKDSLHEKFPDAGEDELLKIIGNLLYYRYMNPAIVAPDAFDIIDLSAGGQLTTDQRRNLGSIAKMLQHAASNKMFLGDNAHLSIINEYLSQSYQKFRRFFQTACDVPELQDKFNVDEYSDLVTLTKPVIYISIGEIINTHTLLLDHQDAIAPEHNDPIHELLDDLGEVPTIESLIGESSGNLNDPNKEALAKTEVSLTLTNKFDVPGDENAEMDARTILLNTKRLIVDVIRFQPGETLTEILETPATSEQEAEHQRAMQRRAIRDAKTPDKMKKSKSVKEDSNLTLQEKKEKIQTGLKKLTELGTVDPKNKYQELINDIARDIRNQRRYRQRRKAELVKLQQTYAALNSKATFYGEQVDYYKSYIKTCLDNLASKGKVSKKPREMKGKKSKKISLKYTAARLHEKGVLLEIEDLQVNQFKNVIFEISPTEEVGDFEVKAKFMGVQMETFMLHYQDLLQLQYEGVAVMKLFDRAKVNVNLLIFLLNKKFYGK

[3] = target: T3, IQGAP1 GRD1-RGCT S1443E (aa 877-1558) (human, UniProt P46940 877-1558, S1443E); assay: stopped-flow fluorometry; mGppNHp-bound RHO protein (0.2 μM) rapidly mixed with IQGAP1 variant (2 μM, or 2-12 μM for kon); koff by displacement with 10 μM non-fluorescent GppNHp-bound GTPase; Kd = koff/kon; 30 mM Tris-HCl pH 7.5, 10 mM KH2PO4/K2HPO4, 5 mM MgCl2, 3 mM DTT
T3 construct: human IQGAP1 aa 877-1558 with the phosphomimetic mutation S1443E (printed as S1143E in the methods, S1443E everywhere else), from the vector pET46 EkLIC; source: E. coli (pLysS BL21(DE3), CodonPlusRIL or BL21(Rosetta)), purified (Ni-NTA, gel filtration)
T3 sequence (looked up): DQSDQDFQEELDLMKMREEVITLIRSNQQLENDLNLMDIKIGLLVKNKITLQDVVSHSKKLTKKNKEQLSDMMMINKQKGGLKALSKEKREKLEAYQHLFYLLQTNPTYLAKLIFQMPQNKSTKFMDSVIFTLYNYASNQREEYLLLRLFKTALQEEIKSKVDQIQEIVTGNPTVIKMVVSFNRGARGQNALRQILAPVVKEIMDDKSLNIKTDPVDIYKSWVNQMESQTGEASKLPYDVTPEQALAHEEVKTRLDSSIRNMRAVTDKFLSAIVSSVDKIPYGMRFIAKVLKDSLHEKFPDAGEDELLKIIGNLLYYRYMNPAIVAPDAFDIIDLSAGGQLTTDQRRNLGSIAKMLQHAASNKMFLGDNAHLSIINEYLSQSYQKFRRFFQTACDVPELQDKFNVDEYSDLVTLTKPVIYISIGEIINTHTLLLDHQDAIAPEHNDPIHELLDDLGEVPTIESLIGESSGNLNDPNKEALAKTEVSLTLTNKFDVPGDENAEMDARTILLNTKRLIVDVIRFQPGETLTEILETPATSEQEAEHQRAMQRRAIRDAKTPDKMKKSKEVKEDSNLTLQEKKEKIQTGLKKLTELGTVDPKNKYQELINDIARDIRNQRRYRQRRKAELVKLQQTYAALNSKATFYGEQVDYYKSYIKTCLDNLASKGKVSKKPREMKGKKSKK

B1: CDC42 (aa 1-178) (domain or fragment)
chain: not shown
notes: human CDC42, C-terminally truncated, aa 1-178; Loaded non-covalently with mGppNHp, tGppNHp, mGDP or non-fluorescent GppNHp; the nucleotide is named in the format of each assay; also called CDC42^WT; CDC42-mGppNHp
Kd [1]: 3.6 µM | Kd [2]: 95.1 µM | Kd [3]: 7.03 µM
